Measured values: the supplement of paper PMC9732359
± gives the uncertainty stated by the source.

Assay: protein stability index of a GFP-peptide fusion (yeast GPS) (PSI 1-4); higher = more stable; sorted into four equal gates, so the index is relative within each strain
Summary of the method: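 Plasmids in a pooled yeast library fused tiled 17-residue yeast protein peptides downstream of GFP and also expressed Cherry. Mid-log cultures grown without leucine were sorted into four equal gates by GFP/Cherry fluorescence ratio. Each gate's plasmids were PCR-amplified and Illumina-sequenced, and reads were matched to strains by barcodes. The protein stability index is derived by multiplying each gate's read frequency by its gate number and summing the results.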

| Sequence | protein stability index (doa10∆) | protein stability index (pdr5∆) | protein stability index (san1∆) | protein stability index (ubr1∆) |
| --- | --- | --- | --- | --- |
| ELKDICSFAVTKSSLND [YML103C/NUP188] | 2.87 ± 0.072 | 2.96 ± 0.065 | 2.89 ± 0.072 | 3.02 ± 0.05 |
| EIARQMRDKSFGRTLAS [RPL12A] | 3.25 ± 0.1 | 3.07 ± 0.12 | 2.88 ± 0.13 | 2.72 ± 0.18 |
| PRYTYHTIFSDVCKTRF [YML031W/NDC1] | 2.77 ± 0.055 | 3 ± 0.051 | 2.62 ± 0.035 | 2.82 ± 0.055 |
| NKLRQQAIAKNNPQVVN [SNF5] | 1.54 ± 0.035 | 1.94 ± 0.042 | 1.81 ± 0.049 | 1.65 ± 0.03 |
| SVLISIPLDNYDDFIYL [PCI8] | 1.25 ± 0.048 | 1.75 ± 0.055 | 1.28 ± 0.11 | 1.52 ± 0.042 |
| MHRKSLRRASATVPSAP [YAR002W/NUP60] | 2.64 ± 0.071 | 2.82 ± 0.092 | 2.39 ± 0.064 | 2.74 ± 0.063 |
| KLTQKLVTAGVAAAGIT [CYT1] | 2.1 ± 0.083 | 2.21 ± 0.086 | 2.56 ± 0.065 | 2.11 ± 0.052 |
| NGQEQQGPVKNTQLHGP [RGR1] | 3.02 ± 0.077 | 3.12 ± 0.057 | 3.05 ± 0.052 | 3.1 ± 0.044 |
| LELGSCFSQENIEEMAR [SIN4] | 2.02 ± 0.06 | 2.21 ± 0.073 | 2.64 ± 0.078 | 2.64 ± 0.073 |
| SVDMSALKDPQTDADRV [RIP1] | 3.27 ± 0.079 | 3.68 ± 0.23 | 3.2 ± 0.23 | 3.56 ± 0.15 |
| NGNWEVGVHIADVTHFV [DIS3] | 2.55 ± 0.052 | 2.09 ± 0.061 | 2.9 ± 0.047 | 2.62 ± 0.048 |
| SYQKLLKNYVLNELHPT [PRP8] | 1.62 ± 0.039 | 1.57 ± 0.034 | 1.55 ± 0.057 | 1.75 ± 0.033 |
| MSAPTMRSTSILTEHLG [MTW1] |  |  | 2.87 ± 0.24 |  |
| QCCEFMTMLTPNYLHLV [YML103C/NUP188] | 2.23 ± 0.05 | 1.77 ± 0.045 | 1.66 ± 0.084 | 1.68 ± 0.041 |
| DKVDDYTPEEVDKIERE [SMC4] | 1.17 ± 0.11 | 1.45 ± 0.12 | 1.32 ± 0.22 | 1.28 ± 0.11 |
| HFFQIDGFNKTFHDELN [YML103C/NUP188] | 1.67 ± 0.07 | 2.04 ± 0.12 | 2.67 ± 0.14 | 2.85 ± 0.091 |
| YIHLAYSRSVDKEWVFA [SSN2] | 1.81 ± 0.079 | 1.5 ± 0.057 | 1.84 ± 0.091 | 1.72 ± 0.038 |
| YYGLVIDLLLLGQERAT [PRP8] | 1.76 ± 0.083 | 1.26 ± 0.053 | 1.23 ± 0.11 | 1.38 ± 0.039 |
| RNSWNFALIDYFYDLDV [BRN1] | 2.18 ± 0.057 | 1.87 ± 0.05 | 1.33 ± 0.093 | 2.06 ± 0.044 |
| GLIYSFNEENGEDSTKP [POP1] | 3.25 ± 0.098 | 3.21 ± 0.18 | 2.86 ± 0.26 | 3.1 ± 0.17 |
| LNECLKTIQINNEKVVQ [YML031W/NDC1] | 1.96 ± 0.12 | 2.27 ± 0.073 | 1.29 ± 0.16 | 1.11 ± 0.1 |
| ILDNINHNGSALLIEVF [ITC1] | 1.13 ± 0.096 | 1.22 ± 0.076 | 1.14 ± 0.13 | 1.22 ± 0.07 |
| PTQTKGNDAKPAKVEDV [YLR335W/NUP2] | 3.21 ± 0.057 | 3.25 ± 0.053 | 3.27 ± 0.039 | 3.1 ± 0.047 |
| TKFSNPAIPPVIDLEKI [BRR2] | 2.57 ± 0.068 | 2.75 ± 0.068 | 2.66 ± 0.063 | 2.65 ± 0.052 |
| HYERTQTKENKRCVGVI [RPN8] | 2.9 ± 0.12 | 2.69 ± 0.1 | 2.49 ± 0.093 | 2.43 ± 0.057 |
| SVFNAELLKLLNDEYNY [YCS4] | 1.76 ± 0.053 | 2.31 ± 0.062 | 1.95 ± 0.095 | 2.47 ± 0.04 |
| LELIGVLSINPDMYERK [MED7] | 2.73 ± 0.077 | 2.98 ± 0.086 | 2.89 ± 0.053 | 2.73 ± 0.061 |
